Results taken from US10961303 (UNIVERSITEIT TWENTE, dated 2021).
Substitutions are numbered along the chain they refer to. One block for each binder: values may come before it.

Key:
[1] = molecular target: T1, BMP-6 (R&D systems cat. #507-BP/CF) (human, UniProt P22004 382-513, limits assumed); assay: solid phase ELISA, wells coated with ~200 ng BMP6
T1 construct: Bought protein; also called recombinant human BMP-6
T1 sequence (looked up): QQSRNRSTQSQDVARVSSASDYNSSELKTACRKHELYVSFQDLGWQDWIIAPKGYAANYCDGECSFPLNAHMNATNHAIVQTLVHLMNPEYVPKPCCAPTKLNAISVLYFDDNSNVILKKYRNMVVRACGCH
Method: (§1) The indicated amounts of VHHs were incubated with wells coated with ~200 ng BMP6, 200 ng BMP7 or no BMPs (PBS). After several washes, bound VHHs were detected with a rabbit anti-VHH serum and a Donkey anti-rabbit antibody coupled to a peroxidase. The amount of converted OPD (Absorbance at 490 nm; A 490 nm) is proportional to the amount of bound VHHs.
(§2) MaxiSorb plate wells were coated overnight at 4° C., with the antigens in PBS. After blocking of the wells with 4% marvel in PBS, they were incubated with VHH or VHH-fused to M13 phages in the presence of 2% Marvel. The wells were washed with PBS-tween, and bound phages were detected by incubation with a mouse Monoclonal antibody against M13 phage coupled to HRP. Bound VHH were detected by incubation with a rabbit anti-VHH polyclonal serum and a goat anti-rabbit coupled to HRP. The amount of HRP was developed by the addition of OPD. The reactions were stopped by the addition of H_2SO_4 and measured at 490 nm.

[2] = molecular target: T2, BMP-7 (R&D system cat. #354-BP/CF) (UniProt P18075 293-431); assay: solid phase ELISA, wells coated with 200 ng BMP7
T2 construct: Bought protein
T2 sequence (looked up): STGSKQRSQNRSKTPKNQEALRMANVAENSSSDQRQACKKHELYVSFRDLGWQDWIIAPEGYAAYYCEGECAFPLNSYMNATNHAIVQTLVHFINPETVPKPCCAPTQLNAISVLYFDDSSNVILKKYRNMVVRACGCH
Method: as §1, §2

[3] = molecular target: T1, BMP-6 (R&D systems cat. #507-BP/CF); assay: solid phase ELISA, wells coated with 200 ng BMP
Method: as §1, §2

[4] = molecular target: T2, BMP-7 (R&D system cat. #354-BP/CF); assay: SPR, VHH coupled to CM5 chip, BMP injected
[5] = molecular target: T1, BMP-6 (R&D systems cat. #507-BP/CF); assay: SPR, VHH coupled to CM5 chip, BMP injected
[6] = molecular target: T1, BMP-6 (R&D systems cat. #507-BP/CF); assay: ELISA, 100 ng BMP6 coated, serial dilutions, read at 490 nm
Excerpt: FIG. 7A-7B show the binding properties of the fusion proteins according to the invention which bind to a growth factor or growth factor inhibitor and to a biomaterial. Fusion proteins according to the invention are composed of the VHH according to the invention binding to a growth factor (indicated in the figure as "VHH-6-F2") and a VHH binding to a biomaterial (indicated in the figure as "MA"). […] The fusion proteins (indicated in the figure as "F") were constructed by genetic fusion of a VHH binding to BMP6 and a VHH binding to hydroxyapatite. To achieve binding to the growth factor BMP6 (FIG. 7A), 100 ng of BMP6 was coated into wells of a maxisorb plate. Serial dilutions of the VHH which binds to BMP6 (VHH-6-F2) and fusion proteins according to the invention (F) were added to the wells. Bound VHHs (VHH-6-F2) and fusion proteins (F) were detected with labelled polyclonal antibodies.

[7] = molecular target: T2, BMP-7 (R&D system cat. #354-BP/CF); assay: binding test to cognate antigen, method not described

binding result [2]: binds | binding result [3]: no binding
B4: VHH-7-F11 (VHH)
VHH: EVQLVESGGGLVQAGGSLRLSCAASGRTFSGYVAGWFRQAPGKEREFVAASSWSGITYYGDSVKGRFTISRDNAKNTVYLQMNSLKPEDTAVYYCGAGKGYYKDYRGYDYWGQGTQVTVSS
notes: Llama VHH selected against BMP7; In SPR coupled to a CM5 chip by NHS chemistry; not shown: C-terminal Myc and His tags

binding result [4]: binds | binding result [5]: binds
B5: VHH-6-H1 (VHH)
VHH: EVQLVESGGGLVQAGGSLRLSCAASGSIFSIVSMGWYRQVPGKQRELVAAITSAGSTNYGDSAKGRFTISRDNAKNTVYLQMNSLKPEDTAVYYCNSYGLGYPGDYGIDYWGKGTLVTVSS
notes: Llama VHH selected against BMP6; In SPR coupled to a CM5 chip by NHS chemistry; also called monohead VHH-6-H1; not shown: C-terminal Myc and His tags

binding result [1]: binds | binding result [2]: binds
B6: VHH-6-C2 (VHH)
VHH: EVQLVESGGGLVQVGGSLRLSCAASGRTSSMYSMGWFRQAPGKEREFVAAIGWRFGEKYYTNSVKGRFTISRDGAENTNTVYLQMNSLKPDDTAVYYCAADPDDASQYYSDWMKGYGMDYWGKGTLVTVSS
notes: Llama VHH selected against BMP6, cross-reactive with BMP7; not shown: C-terminal Myc and His tags

binding result [7]: binds
B8: Glyco-VHH (glycosylated VHH-7-G7 with an N-glycosylation site introduced in loop5, made in yeast) (VHH)
VHH: EVQLVESGGGLVQAGGSLRLSCAASGFTFDDYIIGWFRQAPGKEREGISCISSSDGSTYYADSVTGRFTISSDNANNTVYLQMNSLKPEDTAVYYCAAHAKWPYGTYSFRRCRRASFDSWGQGTQVTVSS
modifications: N-linked glycosyl group at the glycosylation site introduced in loop5 (position not given)
notes: Expressed in S. cerevisiae; also called mutated VHH

Further lines, the binder ahead of its results:

B1: VHH-6-D6 (VHH)
VHH: EVQLVESGGGLVQAGGSLRLSCAASGRTFSSYGMGWFRQAPGKERDFVAAVSKSGGSTYYTASVKGRFTVSRDNAKNTVYLQMNSLKPEDTAVYYCAAGRWESGSRPGSTWYGERTYDYWGQGTQVTVSS
notes: Llama VHH selected against BMP6, made in E. coli periplasm; not shown: C-terminal Myc and His tags
binding result [1]: binds

B2: VHH-6-C1 (VHH)
VHH: B1 VHH with K53R, S57N, V70I, V79M, P107L
notes: Llama VHH selected against BMP6; not shown: C-terminal Myc and His tags
binding result [1]: binds

B3: VHH-7-B8 (VHH)
VHH: B4 VHH with Q13R, S51I, S70A, A74S, T77G
notes: Llama VHH selected against BMP7; not shown: C-terminal Myc and His tags
binding result [2]: binds

B7: VHH-6-F2 (VHH)
VHH: EVQLVESGGGFVQAGGSLRLSCAASGSIFSINAMGWYRQAPGKQRELVAAITSGGSTNYADSVKGRFTISRDNAKNTLYLQMNSLKPEDTAVYYCSAVTILLTSGGWGSGNDYWGQGTQVTVSS
notes: as for B2
binding result [6]: binds
